Target: T1, extracellular region of human V158 FcγRIIIa fused with glutathione S-transferase (GST) (human, UniProt P08637 17-208)
T1 construct: extracellular domain; also called human Val158 FcγRIIIa; not shown: glutathione S-transferase (GST) tag
Experiment: AlphaScreen competition as in Example 2 (biotinylated WT antibody on donor beads, GST-tagged human V158 FcγRIIIa on acceptor beads); Fc variants in the context of rituximab

T1 sequence (P08637 17-208 F176V): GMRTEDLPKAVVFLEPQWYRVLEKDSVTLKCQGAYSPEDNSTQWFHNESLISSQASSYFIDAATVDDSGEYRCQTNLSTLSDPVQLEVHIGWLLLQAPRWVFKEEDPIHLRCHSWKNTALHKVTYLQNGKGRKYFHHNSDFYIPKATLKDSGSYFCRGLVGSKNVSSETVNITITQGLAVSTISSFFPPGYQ

| IC50 (read off the curve) | Binder |
| --- | --- |
| ~5 nM | V264I (antibody, N297 glycan, not carried by the letters., also called rituximab V264I; copies: 2 + 2) heavy: not shown light: QIVLSQSPAILSASPGEKVTMTCRASSSVSYIHWFQQKPGSSPKPWIYATSNLASGVPVRFSGSGSGTSYSLTISRVEAEDAATYYCQQWTSNPPTFGGGTKLEIKRTVAAPSVFIFPPSDEQLKSGTASVVCLLNNFYPREAKVQWKVDNALQSGNSQESVTEQDSKDSTYSLSSTLTLSKADYEKHKVYACEVTHQGLSSPVTKSFNRGEC |
| ~0.4 nM | rituximab V264I/I332E (antibody, human IgG1, kappa) heavy: not shown light: QIVLSQSPAILSASPGEKVTMTCRASSSVSYIHWFQQKPGSSPKPWIYATSNLASGVPVRFSGSGSGTSYSLTISRVEAEDAATYYCQQWTSNPPTFGGGTKLEIKRTVAAPSVFIFPPSDEQLKSGTASVVCLLNNFYPREAKVQWKVDNALQSGNSQESVTEQDSKDSTYSLSSTLTLSKADYEKHKVYACEVTHQGLSSPVTKSFNRGEC |
